Results as given in paper PMC5897774, “Mitotic spindle association of TACC3 requires Aurora‐A‐dependent stabilization of a cryptic α‐helix” (The EMBO Journal, 2018).
Where two headings read alike, the source gives them in different places. Non-standard residues stand in square brackets, D forms with d. No end group written: not given here. pS = N[C@@H](COP(=O)(O)O)C(=O)O; FAM = fluorescein label

T1: Aurora‐A (Homo sapiens, UniProt O14965, C290A/C393A)
T1 construct: pET30TEV Aurora‐A 122–403 C290A, C393A; made in house
T1 sequence (O14965 122-403 C290A/C393A): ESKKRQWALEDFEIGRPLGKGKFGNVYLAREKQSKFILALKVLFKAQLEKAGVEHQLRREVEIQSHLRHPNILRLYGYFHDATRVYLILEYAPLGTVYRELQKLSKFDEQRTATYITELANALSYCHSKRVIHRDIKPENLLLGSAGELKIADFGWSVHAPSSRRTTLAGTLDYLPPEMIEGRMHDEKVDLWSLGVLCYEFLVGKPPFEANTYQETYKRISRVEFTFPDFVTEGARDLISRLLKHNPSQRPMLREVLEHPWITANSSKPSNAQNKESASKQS

T2: Aurora‐A R151A (Homo sapiens, UniProt O14965, C290A/C393A/R151A)
T2 construct: pET30TEV Aurora‐A 122–403 C290A, C393A were produced in a similar manner; made in house
T2 sequence (O14965 122-403 R151A/C290A/C393A): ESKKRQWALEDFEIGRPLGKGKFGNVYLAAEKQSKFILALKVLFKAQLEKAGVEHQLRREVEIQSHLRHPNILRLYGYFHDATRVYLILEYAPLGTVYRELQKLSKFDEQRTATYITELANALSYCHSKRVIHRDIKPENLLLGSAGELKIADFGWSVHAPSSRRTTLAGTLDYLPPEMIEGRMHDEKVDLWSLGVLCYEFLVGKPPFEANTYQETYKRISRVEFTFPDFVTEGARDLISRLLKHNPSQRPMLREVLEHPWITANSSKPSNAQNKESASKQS

T3: CHC 1–574 R481E (UniProt Q00610 1-574, R481E)
T3 construct: source: expressed and purified as the WT protein (modified pGEX vector; GST cleaved with TEV)
T3 sequence (looked up): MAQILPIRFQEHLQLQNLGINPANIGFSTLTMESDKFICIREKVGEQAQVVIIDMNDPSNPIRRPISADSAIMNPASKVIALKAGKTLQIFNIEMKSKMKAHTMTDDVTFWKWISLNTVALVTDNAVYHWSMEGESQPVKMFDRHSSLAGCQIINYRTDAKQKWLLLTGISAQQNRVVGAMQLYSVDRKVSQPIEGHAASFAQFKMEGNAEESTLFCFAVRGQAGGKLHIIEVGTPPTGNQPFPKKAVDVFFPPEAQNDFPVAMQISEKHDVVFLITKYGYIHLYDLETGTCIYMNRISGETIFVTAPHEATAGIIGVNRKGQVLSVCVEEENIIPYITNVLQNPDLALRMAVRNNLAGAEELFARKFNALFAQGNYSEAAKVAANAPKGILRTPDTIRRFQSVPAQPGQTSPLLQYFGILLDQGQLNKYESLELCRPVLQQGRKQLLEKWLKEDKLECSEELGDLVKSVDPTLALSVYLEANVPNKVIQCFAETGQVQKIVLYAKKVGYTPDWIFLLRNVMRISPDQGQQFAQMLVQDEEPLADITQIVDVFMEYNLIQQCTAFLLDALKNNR

T4: CHC 1–574 L480D (UniProt Q00610 1-574, L480D)
T4 construct: source: expressed and purified as the WT protein (modified pGEX vector; GST cleaved with TEV)
T4 sequence (looked up): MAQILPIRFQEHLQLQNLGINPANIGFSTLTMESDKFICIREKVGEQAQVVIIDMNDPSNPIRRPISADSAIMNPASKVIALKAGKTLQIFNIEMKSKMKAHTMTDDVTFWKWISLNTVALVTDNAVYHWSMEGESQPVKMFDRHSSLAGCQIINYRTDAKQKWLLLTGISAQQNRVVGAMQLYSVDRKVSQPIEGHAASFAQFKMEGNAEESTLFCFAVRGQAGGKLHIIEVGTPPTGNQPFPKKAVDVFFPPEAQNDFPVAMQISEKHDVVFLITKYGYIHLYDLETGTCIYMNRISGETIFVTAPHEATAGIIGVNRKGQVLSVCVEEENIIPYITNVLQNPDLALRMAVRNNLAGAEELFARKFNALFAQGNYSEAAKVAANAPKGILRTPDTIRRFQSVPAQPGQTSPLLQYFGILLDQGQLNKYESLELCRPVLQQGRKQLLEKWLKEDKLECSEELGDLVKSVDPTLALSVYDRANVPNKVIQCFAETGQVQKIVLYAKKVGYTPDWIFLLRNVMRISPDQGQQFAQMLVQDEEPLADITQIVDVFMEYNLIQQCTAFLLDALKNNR

T5: CHC 1–574 L476D, L480D (UniProt Q00610 1-574, L476D | L480D)
T5 construct: source: expressed and purified as the WT protein (modified pGEX vector; GST cleaved with TEV)
T5 sequence (looked up): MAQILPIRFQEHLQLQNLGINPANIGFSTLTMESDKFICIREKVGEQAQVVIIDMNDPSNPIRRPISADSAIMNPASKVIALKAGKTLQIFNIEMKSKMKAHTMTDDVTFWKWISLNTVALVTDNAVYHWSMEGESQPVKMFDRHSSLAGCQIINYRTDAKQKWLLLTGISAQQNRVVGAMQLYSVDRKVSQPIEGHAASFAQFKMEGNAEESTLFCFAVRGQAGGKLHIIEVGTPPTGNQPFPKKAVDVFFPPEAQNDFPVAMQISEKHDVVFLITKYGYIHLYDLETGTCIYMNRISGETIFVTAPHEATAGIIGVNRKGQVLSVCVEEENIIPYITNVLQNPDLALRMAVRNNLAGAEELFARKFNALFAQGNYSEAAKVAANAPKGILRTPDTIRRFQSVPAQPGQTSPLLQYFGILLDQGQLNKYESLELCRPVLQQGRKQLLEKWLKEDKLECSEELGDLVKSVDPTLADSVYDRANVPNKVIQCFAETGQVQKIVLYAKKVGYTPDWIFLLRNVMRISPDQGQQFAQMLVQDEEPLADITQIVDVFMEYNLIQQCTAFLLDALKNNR

T6: CHC 1–574 L503A/Y504A (UniProt Q00610 1-574, L503A | Y504A)
T6 construct: source: expressed and purified as the WT protein (modified pGEX vector; GST cleaved with TEV)
T6 sequence (looked up): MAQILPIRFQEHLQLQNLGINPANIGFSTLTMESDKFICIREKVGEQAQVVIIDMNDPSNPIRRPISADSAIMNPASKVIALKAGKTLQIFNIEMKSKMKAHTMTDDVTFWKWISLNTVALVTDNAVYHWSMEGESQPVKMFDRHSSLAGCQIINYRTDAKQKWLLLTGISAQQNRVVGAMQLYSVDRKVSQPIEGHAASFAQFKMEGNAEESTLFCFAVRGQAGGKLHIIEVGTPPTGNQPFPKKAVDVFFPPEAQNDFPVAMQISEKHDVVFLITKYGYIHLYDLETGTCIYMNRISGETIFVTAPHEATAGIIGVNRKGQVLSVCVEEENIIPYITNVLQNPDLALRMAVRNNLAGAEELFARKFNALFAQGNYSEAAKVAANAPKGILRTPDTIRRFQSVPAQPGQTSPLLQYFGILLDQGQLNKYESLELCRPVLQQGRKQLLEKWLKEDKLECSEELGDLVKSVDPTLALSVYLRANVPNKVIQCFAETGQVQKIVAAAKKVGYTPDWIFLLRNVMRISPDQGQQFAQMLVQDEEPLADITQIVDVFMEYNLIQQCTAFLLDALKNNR


What was measured:
Aurora‐A [1] = target: T1, Aurora‐A; assay: Radioactive 32P‐ATP kinase assay, MBP substrate; type: biochemical; conditions: 0.625 μM phosphorylated Aurora‐A, 5 μM TACC3^N‐ACID, 0.25 mg/ml MBP, 10 min, scintillation counting, duplicate
Method: (§1) Figure EV2 Biochemical and structural analysis of the Aurora‐A/TACC3 complex • FP assay between FAM‐TACC3 519–570 and Aurora‐A. Reactions were performed in triplicate. Error bars represent standard deviation. […] Error bars represent standard deviation. […] This peptide was based on the location of a sulphate ion, originating from the crystallization solution, at the interface of the Aurora‐A/TACC3 interface in the crystal structure, close to TACC3 T534. […] Myelin basic protein (MBP) was used as a generic kinase substrate. Incorporation of radioisotope was measured by scintillation counting. Reactions were performed in duplicate. Error bars represent standard error. Assays were compared to the WT TACC3^N‐ACIDH6c reaction by one‐way ANOVA with Dunnett's post hoc test. […], **P < 0.01 and ****P < 0.0001. • Multiple sequence alignment of TACC3 (above) and Aurora‐A (below) orthologs spanning the interaction binding interface. Key binding residues are boxed in red. The TACC3 phosphorylation sites, S552 and S558, are boxed in blue. The TACC3 LL motif required for binding to CHC is boxed in green. The TACC3 α‐helix produced on binding to CHC is identified by a black line. TEXT PRINTED IN THE PICTURE: (A) TACC3 519-570: 3.0 ± 0.2 μM | (B) WT: 20 ± 1 μM | (B) R526A: 49 ± 2 μM | (B) phospho-T534: 14 ± 1 μM
Radioactive ^32P‐ATP kinase assays were performed as described previously (Burgess et al, 2015). In brief, 0.625 μM Aurora‐A^M3KD WT or selected mutant was incubated with 0.25 mg/ml MBP alone and in the presence of 5 μM TACC3^N‐ACID WT or mutant for 10 min. Reactions were terminated by the addition of 2% (v/v) orthophosphoric acid. Samples were spotted onto P81 Whatman paper, washed extensively with 0.2% (v/v) orthophosphoric acid and incorporation of radioisotope measured by scintillation counting.

Aurora‐A R151A = target: T2, Aurora‐A R151A; assay: Radioactive 32P‐ATP kinase assay, MBP substrate, Aurora‐A R151A; type: biochemical; conditions: 0.625 μM Aurora‐A R151A, 5 μM TACC3^N‐ACID, 0.25 mg/ml MBP, 10 min, scintillation counting, duplicate
Method: as §1, with “The TACC3 α‐helix produced on binding to CHC is identified by a black line. TEXT PRINTED IN THE PICTURE: (A) TACC3 519-570: 3.0 ± 0.2 μM | (B) WT: 20 ± 1 μM | (B) R526A: 49 ± 2 μM | (B) phospho-T534: 14 ± 1 μM” left out
Radioactive ^32P‐ATP kinase assays were performed as described previously (Burgess et al, 2015). […] Samples were spotted onto P81 Whatman paper, washed extensively with 0.2% (v/v) orthophosphoric acid and incorporation of radioisotope measured by scintillation counting.

[2] = test system: unphosphorylated Aurora‐A KD; assay: Autophosphorylation assay of unphosphorylated Aurora‐A KD (Western blot αphospho‐T288); type: biochemical, human; conditions: unphosphorylated Aurora‐A 122–403, 1 h, room temperature
Description: (§2) Figure 2 TACC3 523–534 forms a docking interaction on the N‐lobe of Aurora‐A • Magnified view of the site 1 interaction. • Schematic showing the key features of the TACC3/Aurora‐A interface. • FP assays of binding between site 1 of TACC3 and Aurora‐A. The sequence of TACC3 present in the complex crystal structure is shown (top) with the residues of the site 1 FP peptide coloured orange and mutated residues identified by coloured circles corresponding to the curves shown in the FP assay (below). Data represent mean of three experiments ± SD. […] Data represent mean of three experiments ± SD. […] Reactions were analysed by SDS–PAGE (above) and Western blotting with an αphospho‐T288 Aurora‐A antibody (below). […] They are listed as printed.
(§3) Autophosphorylation assays were performed as for radioactive ^32P‐ATP reactions using Aurora‐A 122–403 co‐expressed with lambda phosphatase for 1 h at room temperature with His‐Aurora‐A D274N as a substrate in replace of MBP. Reactions were resolved by SDS–PAGE and subject to Western blotting using an α‐phospho‐T288 Aurora‐A antibody (CST 2914, 1:2,000) as per the manufacturer's recommendation.

[3] = test system: Aurora‐A KD (substrate: Aurora‐A D274N); assay: Substrate phosphorylation of kinase‐dead Aurora‐A D274N by Aurora‐A KD (Western blot αphospho‐T288); type: biochemical, human; conditions: Aurora‐A D274N as substrate, 1 h, room temperature
Description: as §2, §3

Aurora‐A [4] = target: T1, Aurora‐A; set-up: method as in Burgess et al, 2015; conditions: ref Burgess et al, 2015, cited from earlier work
CHC 1–574 R481E = target: T3, CHC 1–574 R481E; assay: fluorescence polarisation; CHC proteins serially diluted in 20 mM HEPES–NaOH pH 7.5, 200 mM NaCl, 5 mM DTT; 50 nM FAM‐labelled TACC3 peptide; 30 min at room temperature; read at 25°C; conditions: both partners purified
CHC 1–574 L480D = target: T4, CHC 1–574 L480D; assay: as above; conditions: both partners purified
CHC 1–574 L476D, L480D = target: T5, CHC 1–574 L476D, L480D; assay: as above; conditions: both partners purified
CHC 1–574 L503A/Y504A = target: T6, CHC 1–574 L503A/Y504A; assay: as above; conditions: both partners purified

Row | stimulation of Aurora‐A activity (Aurora‐A [1]) | stimulation of Aurora‐A R151A activity by TACC3 (Aurora‐A R151A) | Kd (CHC 1–574 R481E) | Kd (CHC 1–574 L480D) | Kd (CHC 1–574 L476D, L480D) | Kd (CHC 1–574 L503A/Y504A) | Molecule | Aurora‐A autophosphorylation on T288 [2] | substrate phosphorylation on T288 (Aurora‐A D274N) [3] | Kd (Aurora‐A [4]; microscale thermophoresis and NMR, read-out: K d measured by MST and NMR) | Kd (Aurora‐A [4]; previous data, effect of F525A mutation, read-out: K d of the interaction)
1 | eightfold | reduced stimulation | – | – | – | – | TACC3^N‐ACID: N-terminal fragment of the Aurora-A and CHC interaction domain of TACC3, aa519–563 (ELKEESFRDPAEVLGTGAEVDYLEQFGTSSFKESALRKQSLYLKF; not fully specified) | stimulated | stimulated | 6 to 8 µM | 5.7 µM
2 | – | – | > 300 µM | > 300 µM | > 300 µM | > 300 µM | {FAM}-FKESALRKQ[pS]LYLKFDPLLRDS (peptide, UniProt Q9Y6A5 549-570, looked up, TACC3, human, aa549–570 (TACC3^CID); also called pTACC3^CID; FAM‐labelled pTACC3^CID; source: FAM‐labelled peptide (FAM‐TACC3 peptides: PPR, Cambridge; Almac, Craigavon)) [FAM‐TACC3 549–570 phosphorylated on S558 (FAM‐phospho‐TACC3^CID)] | – | – | – | –
